From US20130109846A1 (published 2013)
Residue numbers refer to the chain shown, from its start.

B1: 1h-36-6 (other)
VL: DIQMTQSPSSLSASVGDRVTITCRASRDIALDLLWYQLKPGKAPKLLIKGWSGLQSGVPSRFSGSGSGTDFTLTISSLQPEDFATYFCAQGWGRPVTFGQGTKVEIKR
B2: 1h-72 (other)
VL: DIQMTQSPSSLSASVGDRVTITCRASRSINHWLDWYQQKPGKAPTLLISGVSWLQSGVPSRFSGSGSGTDFTLTISSLQPEDFATYYCCQPGFRPCTFGQGTKVEIKR
B3: 1h-119 (other)
VH: EVQLLESGGGLVQPGGSLRLSCAASGFTFTDRCMMWVRQAPGKGLEWVSSIQVEGNHTYYADSVKGRFTISRDNSKNTLYLQMNSLRAEDTAVYYCAKCMTVGPGNSFDYWGQGTLVTVSS
B4: 1h-79-1 (other)
VL: DIQMTQSPSSLSASVGDRVTITCRASQPIGHSFGWYQQKPGKAPKLLIYWASTLQSGVPTRFSGSGSGTDFTLTISSLQPEDFATYYCQQMLRTPFTFGQGTKVEIKR
B5: 1h-100 (other)
VH: EVQLLESGGGLVQPGGSLRLSCAASGFTFESYWMSWVRQAPGKGLEWVSTIADTGGLTYYADSVKGRFTISRDNSKNTLYLQMNSLRAEDTAVYYCAKVAYVLDDQPAFDYWGQGTLVTVSS
B6: 1h-35-2 (other)
VL: DIQMTQSPSSLSASVGDRVTITCRASQYIGSALGWYQQKPGKAPKLLIYRASHLQSGVPSRFSGSGSGTDFTLTISSLQPEDFATYYCQQLAIRPFTFGQGTKVEIKR
B7: 1h-35-7 (other)
VL: B6 VL with H53N, S67Y, D70G
B8: 1h-75 (other)
VL: B6 VL with S31T, A32R, G34S, R50N, H53F, I93L, R94S, F96L
B9: 1h-35-9 (other)
VL: B6 VL with H53N, L54M
B10: 1h-39 (other)
VL: B6 VL with S31T, G34H, K45R, R50L, A51S, H53N, L91S, I93L, R94N, F96Y
B11: 1h-79-15 (other)
VL: B4 VL with F33L, T60S, L73I
B12: 1h-35-5 (other)
VL: B6 VL with L33I, G34S, K42R, H53Y, E105G
B13: 1h-79-1505 (other)
VL: B4 VL with F33L, A51G, T53W, T60S
B14: 1h-74 (other)
VL: B6 VL with S31G, G34S, H53R, L91V, I93L, R94V, F96Y
B15: 1h-69 (other)
VL: B6 VL with Y28K, S31T, A32G, G34R, H53V, L91T, I93F, R94P, F96Y
B16: 1h-73 (other)
VL: B6 VL with S31T, A32Q, G34S, A51G, H53L, L91T, I93L, R94S, F96Y
B17: 1h-70 (other)
VL: DIQMTQSPSSLSASVGDRVTITCRASQSIGTGLRWYQQKPGKAPMLLIYRASILQSGVPSRFSGGGSGTDFTLTISSLQPEDFATYYCQQTWYRPYTFGQGTKVEIKR
B18: 1h-114 (other)
VH: EVQLLESGGGLVQPGGSLRLSCAASGFTFASYSMAWVRQAPGKGLEWVSTIMPSGQRTYYADSVKGRFTISRDNSKNTLYLQMNSLRAEDTAVYYCAKNQSHQRRGIFDYWGQGTLVTVSS
B19: 1h-115 (other)
VH: EVQLLESGGGLVQPGGSLRLSCAASGFTFSEYSMAWVRQAPGKGLEWVSHISRDGEFTYYADSVKGRFTISRDNSKNTLYLQMNSLRAEDTAVYYCAKGNADLGWVQPHLFVYWGQGTLVTVSS
B20: 1h-99-241 (other)
VH: EVQLLESGGGLVQPGGSLRLSCAASGFTFDSANMSWVRQAPGKGLEWVSWIENNGPQTFYADSVKGRFTISRDDSKNTLYLQMNSLRAEDTAVYYCAKSPFGPLYGFDYRGQGTLVTVSS
B21: 1h-99-254 (other)
VH: B20 VH with V37A, N53S, N54S, P56G, D74N
B22: 1h-99-270 (other)
VH: B20 VH with D30Y, S31K, V37A, N53A, N54S, P56V, D74N
B23: 1h-99-277 (other)
VH: B20 VH with V37A, N53A, N54V, P56V, D74N
B24: 1h-99-243 (other)
VH: B20 VH with V37G, N53A, N54S, P56V, D74N
B25: 1h-99-264 (other)
VH: B20 VH with S31K, A32S, N53A, N54P, P56V, K65R, D74N, K98R
B26: 1h-99-269 (other)
VH: B20 VH with D30K, N53A, N54S, P56V, D74N
B27: 1h-99-267 (other)
VH: B20 VH with D30Y, S31R, A32S, N53A, N54S, P56V, D74N
B28: 1h-99-263 (other)
VH: B20 VH with D30Y, S31K, N53A, N54S, P56V, D74N
B29: 1h-99-278 (other)
VH: B20 VH with D30P, S31H, A32S, V37A, N53D, N54T, P56T, D74N
B30: 1h-99-250 (other)
VH: B20 VH with V37A, N53A, N54T, P56G, D74N
B31: 1h-99-275 (other)
VH: B20 VH with D30K, S31D, A32K, V37A, N53D, N54T, P56T, D74N, K98R
B32: 1h-99-246 (other)
VH: B20 VH with V37A, N53A, N54S, P56G, D74N
B33: 1h-99-249 (other)
VH: B20 VH with N53D, N54I, P56V, D74N
B34: 1h-99-297 (other)
VH: B20 VH with V37A, N53A, N54I, P56V, D74N
B35: 1h-99-256 (other)
VH: B20 VH with N53A, N54I, P56V, D74N
B36: 1h-99-276 (other)
VH: B20 VH with D30N, S31R, V37A, N53D, N54T, P56T, D74N
B37: 1h-99-262 (other)
VH: B20 VH with D30Y, S31K, N53A, N54P, P56V, K65R, D74N, K98R
B38: 1h-99-268 (other)
VH: B20 VH with D30K, N53A, N54P, P56V, K65R, D74N, K98R
B39: 1h-99-266 (other)
VH: B20 VH with D30Y, S31R, A32S, N53A, N54P, P56V, K65R, D74N, K98R
B40: 1h-99-260 (other)
VH: B20 VH with V37A, N53A, D74N
B41: 1h-99-245 (other)
VH: B20 VH with V37A, N53A, N54S, P56F, D74N
B42: 1h-71 (other)
VL: DIQMTQSPSSLSASVGDRVTITCRASRDIGHMLNWYQQKPGKAPKLLIWFGSVLQSGVPSRFSGSGSGTDFTLTISSLQPEDFATYYCVQGRLRPPTFGQGTKVEIKR
B43: 1h-38 (other)
VL: DIQMTQSPSSLSASVGDRVTITCRASQPIGSVLAWYQQKPGKAPKLLIYFSSILQSGVPSRFSGSGSGTDFTLTISGLQPEDFATYYCQQALRSPFTFGQGTKVEIKR

Molecular target: human CD28 (human, UniProt P10747 19-220)
Test: cell-based or functional assay

Row | Binder | Luciferase assay (EC50) [nM] | MLR assay (EC50) [nM]
1 | B1 | 162 | 260
2 | B2 | 3400 | 
3 | B3 | 2800 | 
4 | B4 | 418000 | 2100
5 | B5 | > 7000 | 
6 | B6 | 279 | 197
7 | B7 | 79 | 270
8 | B8 | 5700 | 
9 | B9 | 278 | 318
10 | B10 | 1300 | 
11 | B11 | 40 | 268
12 | B12 | 261 | 248
13 | B13 | 103 | 
14 | B14 | 1300 | 
15 | B15 | > 7000 | 
16 | B16 | 4900 | 
17 | B17 | 6600 | 
18 | B18 | 3100 | 
19 | B19 | 4000 | > 7000
20 | B20 | 17 | 22
21 | B21 | 11 | 7
22 | B22 | 4 | 6

Row | Binder | Luciferase assay (EC50) [nM] | MLR assay (EC50) [nM]
23 | B23 | 6 | 9
24 | B24 | 4 | 8
25 | B25 | 5 | 3
26 | B26 | 10 | 5
27 | B27 | 6 | 4
28 | B28 | 6 | 4
29 | B29 | 12 | 13
30 | B30 | 9 | 8
31 | B31 | 6 | 10
32 | B32 | 3 | 8
33 | B33 | 6 | 11
34 | B34 | 6 | 6
35 | B35 | 9 | 7
36 | B36 | 5 | 18
37 | B37 | 6 | 8
38 | B38 | 11 | 13
39 | B39 | 8 | 4
40 | B40 | 11 | 13
41 | B41 | 6 | 11
42 | B42 | 3500 | 
43 | B43 | 650 | 725
